# Experimental data from the Immune Epitope Database (IEDB).
# What was measured:
# HLA-B*40:02 = experiment: IEDB peptide-MHC binding, cellular MHC/competitive/fluorescence; ≥ and ≤ were set here for values at or beyond the usual limits of such assays; details: source organism: Homo sapiens
# HLA-A*01:01 [1] = experiment: IEDB peptide-MHC binding, purified MHC/direct/fluorescence; filed as Kd, often an IC50 or EC50 that approximates it; ≥ and ≤ were set here for values at or beyond the usual limits of such assays
# HLA-A*26:01 [2] = experiment: as above
# HLA-A*31:01 = experiment: as above
# HLA-B*15:09 = experiment: as above; details: source organism: Yersinia pestis CA88-4125
# HLA-B*18:01 [3] = experiment: as above
# HLA-B*27:05 [4] = experiment: as above
# HLA-B*57:01 [5] = experiment: as above
# HLA-B*58:01 = experiment: as above
# HLA-B*73:01 = experiment: as above; details: source organism: Yersinia pestis CA88-4125
# HLA-A*02:01 [6] = experiment: IEDB peptide-MHC binding, purified MHC/competitive/fluorescence; filed as Kd, often an IC50 or EC50 that approximates it; ≥ and ≤ were set here for values at or beyond the usual limits of such assays; details: source organism: Yersinia pestis KIM10+
# HLA-A*02:03 = experiment: as above; details: source organism: Yersinia pestis KIM10+
# HLA-A*02:06 = experiment: as above
# HLA-A*11:01 [7] = experiment: as above; details: source organism: Yersinia pestis KIM10+
# HLA-A*30:01 = experiment: as above
# HLA-A*68:02 [8] = experiment: as above
# HLA-B*07:02 [9] = experiment: as above
# HLA-B*15:01 [10] = experiment: as above
# HLA-B*15:42 = experiment: as above; details: source organism: Yersinia pestis KIM10+
# HLA-B*27:20 = experiment: as above; details: source organism: Yersinia pestis KIM10+
# HLA-B*39:01 = experiment: as above; details: source organism: Yersinia pestis KIM10+
# HLA-B*45:06 = experiment: as above; details: source organism: Yersinia pestis KIM10+
# HLA-B*83:01 = experiment: as above; details: source organism: Yersinia pestis KIM10+
# HLA-C*06:02 = experiment: as above; details: source organism: Yersinia pestis KIM10+
# HLA-A*02:01 [11] = experiment: IEDB peptide-MHC binding, purified MHC/direct/fluorescence; filed as Kd, often an IC50 or EC50 that approximates it; ≥ and ≤ were set here for values at or beyond the usual limits of such assays
# HLA-A*03:01 = experiment: as above
# HLA-A*11:01 [12] = experiment: as above
# HLA-A*69:01 = experiment: as above; details: source organism: Camelpox virus M-96
# HLA-B*08:02 = experiment: as above
# HLA-B*40:01 = experiment: as above
# HLA-A*01:01 [13] = experiment: IEDB peptide-MHC binding, purified MHC/competitive/fluorescence; filed as Kd, often an IC50 or EC50 that approximates it; ≥ and ≤ were set here for values at or beyond the usual limits of such assays; details: source organism: Candida albicans SC5314
# HLA-A*26:01 [14] = experiment: as above; details: source organism: Candida albicans SC5314
# HLA-A*26:02 [15] = experiment: as above; details: source organism: Candida albicans SC5314
# HLA-A*26:03 = experiment: as above
# HLA-B*15:17 = experiment: as above
# HLA-B*18:01 [16] = experiment: as above; details: source organism: Candida albicans SC5314
# HLA-B*27:05 [17] = experiment: as above; details: source organism: Candida albicans SC5314
# HLA-B*35:01 = experiment: as above; details: source organism: Candida albicans SC5314
# HLA-B*48:01 [18] = experiment: as above; details: source organism: Candida albicans SC5314
# HLA-B*57:01 [19] = experiment: as above; details: source organism: Candida albicans SC5314
# HLA-A*26:02 [20] = experiment: IEDB peptide-MHC binding, purified MHC/direct/fluorescence; filed as Kd, often an IC50 or EC50 that approximates it; ≥ and ≤ were set here for values at or beyond the usual limits of such assays; details: source organism: Vibrio cholerae V52
# HLA-A*68:02 [21] = experiment: as above; details: source organism: Vibrio cholerae
# HLA-B*07:02 [22] = experiment: as above; details: source organism: Vibrio cholerae
# HLA-B*08:01 = experiment: as above; details: source organism: Vibrio cholerae V52
# HLA-B*15:01 [23] = experiment: as above; details: source organism: Vibrio cholerae
# HLA-B*46:01 = experiment: as above; details: source organism: Vibrio cholerae
# HLA-B*48:01 [24] = experiment: as above; details: source organism: Vibrio cholerae
# [25] = source organism: Yersinia pestis
# [26] = source organism: Yersinia pestis KIM10+
# [27] = source organism: Camelpox virus M-96
# [28] = source organism: Candida albicans SC5314
# [29] = source organism: Vibrio cholerae
# [30] = source organism: Vibrio cholerae V52
# [31] = source organism: Vibrio cholerae 2740-80
sequence,measurement,setting,value
REFSKEPEL,IC50,HLA-B*40:02,0.8 µM
REASPSRLS,IC50,HLA-B*40:02,1.9 µM
SRWAISHWL,Kd,HLA-A*01:01 [1]; [25],≥ 20 µM
same,Kd,HLA-A*26:01 [2]; source organism: Yersinia pestis CA88-4125,≥ 20 µM
same,Kd,HLA-A*31:01; [25],≥ 20 µM
same,Kd,HLA-B*15:09,≥ 20 µM
same,Kd,HLA-B*18:01 [3]; [25],≥ 20 µM
same,Kd,HLA-B*27:05 [4]; [25],0.0203 µM
same,Kd,HLA-B*57:01 [5]; [25],≥ 20 µM
same,Kd,HLA-B*58:01; [25],≥ 20 µM
same,Kd,HLA-B*73:01,0.167 µM
same,Kd,HLA-A*02:01 [6],0.0762 µM
same,Kd,HLA-A*02:03,0.205 µM
same,Kd,HLA-A*02:06; [26],0.0086 µM
same,Kd,HLA-A*11:01 [7],≥ 20 µM
same,Kd,HLA-A*30:01; [26],2.69 µM
same,Kd,HLA-A*68:02 [8]; [26],≥ 20 µM
same,Kd,HLA-B*07:02 [9]; [26],≥ 20 µM
same,Kd,HLA-B*15:01 [10]; [26],1.84 µM
same,Kd,HLA-B*15:42,≥ 5 µM
same,Kd,HLA-B*27:20,0.0048 µM
same,Kd,HLA-B*39:01,0.0363 µM
same,Kd,HLA-B*45:06,≥ 5 µM
same,Kd,HLA-B*83:01,≥ 5 µM
same,Kd,HLA-C*06:02,0.0822 µM
RVYNNTARY,Kd,HLA-A*02:01 [11]; [27],≥ 20 µM
same,Kd,HLA-A*03:01; [27],0.0507 µM
same,Kd,HLA-A*11:01 [12]; [27],0.0225 µM
same,Kd,HLA-A*31:01; [27],0.432 µM
same,Kd,HLA-A*69:01,≥ 20 µM
same,Kd,HLA-B*08:02; source organism: Variola virus,≥ 20 µM
same,Kd,HLA-B*40:01; [27],≥ 20 µM
same,Kd,HLA-B*58:01; [27],0.016 µM
same,Kd,HLA-A*01:01 [13],≥ 20 µM
same,Kd,HLA-A*02:06; [28],≥ 20 µM
same,Kd,HLA-A*26:01 [14],0.0768 µM
same,Kd,HLA-A*26:02 [15],0.528 µM
same,Kd,HLA-A*26:03; [28],≥ 20 µM
same,Kd,HLA-A*68:02 [8]; [28],≥ 20 µM
same,Kd,HLA-B*07:02 [9]; [28],≥ 20 µM
same,Kd,HLA-B*15:01 [10]; [28],0.187 µM
same,Kd,HLA-B*15:17; [28],0.0015 µM
same,Kd,HLA-B*18:01 [16],≥ 20 µM
same,Kd,HLA-B*27:05 [17],≥ 20 µM
same,Kd,HLA-B*35:01,0.159 µM
same,Kd,HLA-B*48:01 [18],≥ 20 µM
same,Kd,HLA-B*57:01 [19],0.655 µM
AADFPGIAR,Kd,HLA-A*01:01 [1]; [29],≥ 20 µM
same,Kd,HLA-A*02:01 [11]; [29],≥ 20 µM
same,Kd,HLA-A*03:01; [29],1 µM
same,Kd,HLA-A*11:01 [12]; [29],0.164 µM
same,Kd,HLA-A*26:01 [2]; [30],≥ 20 µM
same,Kd,HLA-A*26:02 [20],≥ 20 µM
same,Kd,HLA-A*31:01; [29],6.3 µM
same,Kd,HLA-A*68:02 [21],≥ 20 µM
same,Kd,HLA-B*07:02 [22],≥ 20 µM
same,Kd,HLA-B*08:01,≥ 20 µM
same,Kd,HLA-B*08:02; [30],≥ 20 µM
same,Kd,HLA-B*15:01 [23],≥ 20 µM
same,Kd,HLA-B*18:01 [3]; [29],≥ 20 µM
same,Kd,HLA-B*27:05 [4]; [29],≥ 20 µM
same,Kd,HLA-B*40:01; [29],≥ 20 µM
same,Kd,HLA-B*46:01,≥ 20 µM
same,Kd,HLA-B*48:01 [24],≥ 20 µM
same,Kd,HLA-B*57:01 [5]; [29],≥ 20 µM
same,Kd,HLA-B*58:01; [29],≥ 20 µM
same,Kd,HLA-A*26:03; [31],≥ 20 µM
same,Kd,HLA-A*30:01; [31],2.11 µM
same,Kd,HLA-B*15:17; [31],≥ 20 µM
